For orientation: EC50 means the concentration at which the effect is half-maximal. One may read the Kd as the concentration at which binding is half-saturated. The low end stands for a tighter complex, the high end for a looser complex.

Substitutions are numbered along the chain they refer to.

T1: Tau409-426 pS422 peptide (human)
T1 chain: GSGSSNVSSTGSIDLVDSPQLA

B1: V0023 (antibody, V domains shown)
VH: QVQLQQPGTELVKPGASVKLSCKASGYTFTIFWMHWVKQRPGHGLEWIGKINPNNGGGDYNEKFKSKATLTVDKSSTTAYLQLSSLTSEDSAVYYCARGTGTGAMDYWGQGTSVTVSS
VL: DVVMTQTPLSLPVSLGDHASISCRSSQSLVHSNGITHLYWYLQRPGQTPKLLIYRVSNRFSGVPDRFSGSGSGTDFTLKISSVEAEDLGVYFCFQGTHVPRTFGGGTKLEIE
modifications: enriched paired helical filament tau, hyperphosphorylated
B2: Ab3 (antibody, V domains shown)
VH: EVQLVQSGAEVKKPGSSVKVSCKASGFTFTRYWMHWVKERPGHGLEWIGNINPNNGGTDFNEKFKNRVTMTVHKSITTAYMELSRLTSDDSAVYYCARGTGTGAMDYWGQGTLVSVSS
VL: DVVMTQSPLSLPVTLGQPASISCRSSQSLVHNNGITYLYWYQQRPGQSPRLLIYRVSNRFSGVPDRFSGSGSGTDFTLKISRVEAEDVGVYYCFQGTHVPRTFGQGTKLEIK
modifications: non-phosphorylated recombinant tau
B3: Ab4 (antibody, V domains shown)
VH: QVQLVQSGAEVKKPGASVKVSCKASGFTFTRYWMHWVKERPGQGLEWMGNINPNNGGTDFNEKFKNRVTMTVHKSTSTVFIQLSSLRSEDTAVYYCARGTGTGAMDYWGQGTSVTVSS
VL: B2 VL with V2I, P12S, L15P, Q42L, R44K, R50Q, L109V
modifications: non-phosphorylated recombinant tau
B4: Ab7 (antibody, V domains shown)
VH: B2 VH with E1Q, S16A, K38R, T77S, R85S, T87R, S115T
VL: B2 VL
modifications: non-phosphorylated recombinant tau
B5: Ab9 (antibody, V domains shown)
VH: B2 VH
VL: B2 VL with V2I, P12S, L15P, Q42L, R44K, R50Q, L109V
modifications: non-phosphorylated recombinant tau
B6: Ab2 (antibody, V domains shown)
VH: B3 VH with Q6E, Q43H, M70I, T76A, V79A, F80Y, I81M, Q82E, S113T
VL: B2 VL
modifications: non-phosphorylated recombinant tau
B7: Ab6 (antibody, V domains shown)
VH: B3 VH with Q6E, Q43H, M70I, T76A, V79A, F80Y, I81M, Q82E, S113T
VL: B2 VL with V2I, P12S, L15P, Q42L, R44K, R50Q, L109V
modifications: non-phosphorylated recombinant tau
B8: Ab10 (antibody, V domains shown)
VH: B2 VH
VL: B2 VL with V2I, S7T, L11S, S48P, S72A, S81N, Y92F
modifications: non-phosphorylated recombinant tau
B9: Ab1 (antibody, V domains shown)
VH: QVQLVQSGAEVKKSGASVKVSCKASGFTFTRYWMHWVRQAPGQGLEWIGNINPNNGGTDFNEKFKNRVTLIRDTSTTTVFIQLTSLTSEDSAVYYCARGTGTGAMDYWGQGTLVTVSS
VL: B2 VL with V2I, P12S, L15P, Q42L, R44K, R50Q, L109V
modifications: non-phosphorylated recombinant tau
B10: Ab11 (antibody, V domains shown)
VH: B3 VH
VL: B2 VL
modifications: non-phosphorylated recombinant tau
B11: Ab8 (antibody, V domains shown)
VH: B9 VH
VL: B2 VL
modifications: non-phosphorylated recombinant tau
B12: Ab5 (antibody, V domains shown)
VH: B3 VH
VL: B2 VL with V2I, S7T, L11S, S48P, S72A, S81N, Y92F
modifications: non-phosphorylated recombinant tau
B13: Ab5 (antibody, V domains shown)
VH: B3 VH
VL: B2 VL with V2I, S7T, L11S, S48P, S72A, S81N, Y92F
modifications: enriched paired helical filament tau, hyperphosphorylated
B14: Ab4 (antibody, V domains shown)
VH: B3 VH
VL: B2 VL with V2I, P12S, L15P, Q42L, R44K, R50Q, L109V
modifications: enriched paired helical filament tau, hyperphosphorylated
B15: Ab8 (antibody, V domains shown)
VH: B9 VH
VL: B2 VL
modifications: enriched paired helical filament tau, hyperphosphorylated
B16: hV0022 control (antibody, V domains shown)
VH: QVQLQQPGTELVKPGSSVNLSCKASGFTFTRYWMHWVKERPGHGLEWIGNINPNNGGTDFNEKFKNKATLTVHKSSTTVFIQLSSLTSEDSAVYYCARGTGTGAMDYWGQGTSVTVSS
VL: B1 VL with H18Q, S32N, H37Y, R44K, T48S, S68G, S82R, E112K
modifications: enriched paired helical filament tau, hyperphosphorylated
B17: V0004 (antibody, V domains shown)
VH: QVQLQQPGAELVKPGASVKLSCKASDYTFTNYWMHWVKQRPGRGLEWIGRIDPNSGGTRYNEKFKNKATLTVDKPSSTAYMHLSSLTSEDSAVYYCAGDFDVWGTGTTVTVSS
VL: DIQMTQSPASLSASVGETVTITCRASGNIHNYLAWYQQRQGKSPQLLVYNAKTLPDGVPSRFSGSGSGTQYSLKINSLQPEDFGSYCCQHFWSTPLTFGAGTKLELK
modifications: immunopurified paired helical filament tau, hyperphosphorylated
B18: Ab11 (antibody, V domains shown)
VH: B3 VH
VL: B2 VL
B19: Ab2 (antibody, V domains shown)
VH: B3 VH with Q6E, Q43H, M70I, T76A, V79A, F80Y, I81M, Q82E, S113T
VL: B2 VL
B20: Ab4 (antibody, V domains shown)
VH: B3 VH
VL: B2 VL with V2I, P12S, L15P, Q42L, R44K, R50Q, L109V
B21: Ab9 (antibody, V domains shown)
VH: B2 VH
VL: B2 VL with V2I, P12S, L15P, Q42L, R44K, R50Q, L109V
B22: Ab7 (antibody, V domains shown)
VH: B2 VH with E1Q, S16A, K38R, T77S, R85S, T87R, S115T
VL: B2 VL
B23: Ab6 (antibody, V domains shown)
VH: B3 VH with Q6E, Q43H, M70I, T76A, V79A, F80Y, I81M, Q82E, S113T
VL: B2 VL with V2I, P12S, L15P, Q42L, R44K, R50Q, L109V
B24: Ab8 (antibody, V domains shown)
VH: B9 VH
VL: B2 VL
B25: Ab5 (antibody, V domains shown)
VH: B3 VH
VL: B2 VL with V2I, S7T, L11S, S48P, S72A, S81N, Y92F
B26: Ab10 (antibody, V domains shown)
VH: B2 VH
VL: B2 VL with V2I, S7T, L11S, S48P, S72A, S81N, Y92F
B27: Ab1 (antibody, V domains shown)
VH: B9 VH
VL: B2 VL with V2I, P12S, L15P, Q42L, R44K, R50Q, L109V
B28: Ab3 (antibody, V domains shown)
VH: B2 VH
VL: B2 VL

T2 sequence (P10636 2-758): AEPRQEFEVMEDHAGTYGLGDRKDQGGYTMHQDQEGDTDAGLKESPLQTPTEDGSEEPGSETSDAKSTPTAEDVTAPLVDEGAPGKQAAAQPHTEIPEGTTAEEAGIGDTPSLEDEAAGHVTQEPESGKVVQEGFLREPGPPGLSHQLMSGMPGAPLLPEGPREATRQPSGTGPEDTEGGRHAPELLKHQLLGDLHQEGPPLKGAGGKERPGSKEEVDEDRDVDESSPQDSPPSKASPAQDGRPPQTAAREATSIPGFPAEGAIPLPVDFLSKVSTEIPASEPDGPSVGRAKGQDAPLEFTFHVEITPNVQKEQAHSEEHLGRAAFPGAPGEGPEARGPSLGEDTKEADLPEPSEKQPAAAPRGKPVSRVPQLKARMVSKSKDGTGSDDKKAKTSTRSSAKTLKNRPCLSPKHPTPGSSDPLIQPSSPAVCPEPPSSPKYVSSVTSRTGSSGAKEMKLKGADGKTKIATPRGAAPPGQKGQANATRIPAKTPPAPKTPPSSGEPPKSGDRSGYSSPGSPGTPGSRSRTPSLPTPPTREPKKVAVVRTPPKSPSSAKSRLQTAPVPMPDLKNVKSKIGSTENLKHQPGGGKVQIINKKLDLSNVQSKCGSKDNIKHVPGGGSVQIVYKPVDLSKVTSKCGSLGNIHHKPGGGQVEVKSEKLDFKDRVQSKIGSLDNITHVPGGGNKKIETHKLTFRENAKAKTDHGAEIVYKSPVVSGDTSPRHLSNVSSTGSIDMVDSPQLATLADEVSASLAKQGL
iPHF, sequence (P10636 2-758): as above

The first experiment addresses T2, ePHF (human, UniProt P10636). The experiment is described as follows: ELISA.
In the case of B1, the midpoint of the response, the EC50, lay at 110 pM.

In another experiment the target is wild type tau (human). The experiment is described as follows: ELISA. Background: ELISA stands for enzyme-linked immunosorbent assay.
wild type tau (human), sequence (P10636 other isoform, or with tags, fused parts or gaps): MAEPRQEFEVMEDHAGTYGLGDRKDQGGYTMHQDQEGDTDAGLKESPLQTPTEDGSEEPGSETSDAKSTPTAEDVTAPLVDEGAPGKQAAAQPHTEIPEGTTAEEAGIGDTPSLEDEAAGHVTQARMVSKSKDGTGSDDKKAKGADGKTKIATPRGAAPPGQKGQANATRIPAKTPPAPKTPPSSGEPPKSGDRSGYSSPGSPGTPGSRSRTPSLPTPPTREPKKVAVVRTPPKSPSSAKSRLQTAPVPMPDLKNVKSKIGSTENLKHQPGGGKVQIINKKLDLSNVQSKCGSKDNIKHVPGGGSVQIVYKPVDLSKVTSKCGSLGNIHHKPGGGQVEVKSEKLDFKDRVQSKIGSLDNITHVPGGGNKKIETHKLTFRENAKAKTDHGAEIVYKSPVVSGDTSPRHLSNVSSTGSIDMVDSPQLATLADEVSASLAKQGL
As for B2, the binding result was “no binding”.
Regarding B3, the binding result is listed as “no binding”.
As to B4, the binding result is recorded as “no binding”.
Still for that read-out and setting: next, B5: “no binding”.
As for B6, the binding result is reported as “no binding”.
Still for that read-out and setting: to B7 belongs “no binding”; to B8, “no binding”.
Turning to B9, the binding result is listed as “no binding”.
As to B10, the binding result is recorded as “no binding”.
B11: the binding result is given as “no binding”.
On the same count and under the same terms, to B12 belongs “no binding”.

For another experiment, the target named is T2, ePHF. The experiment is described as follows: ELISA. This is another data set of the same source.
Molecule B13 returned a concentration giving a half-maximal response (EC50) of 190 pM.
B14: a half-maximal response (EC50) required 180 pM.
On the same count and under the same terms, next, B15: 170 pM.
Consider B16, for which the response was half-maximal at 80 pM (EC50).

Another experiment concerns the target iPHF (human, UniProt P10636). Description: BLI. For orientation: BLI is a label-free optical method that tracks binding on a fibre tip over time.
B17 displayed a Kd of 20000 pM.

The target in a further experiment is T1, Tau409-426 pS422 peptide. The experiment is described as follows: SPR. Background: SPR reads the build-up and loss of mass on a sensor chip optically.
For B18, binding was characterised by a dissociation constant (Kd) of 40.3 pM.
The molecule B19 yielded a dissociation constant (Kd) of 38.6 pM.
Take B20: binding was put at a Kd of 36.1 pM.
The same measure, in the same setting: next, B21: 76.3 pM; B22: 39.8 pM; B23: 39.8 pM.
On the same count and under the same terms, to B24 belongs 53.3 pM; to B25, 29.4 pM.
The molecule B26 registered a dissociation constant Kd of 43.6 pM.
B27 displayed a dissociation constant Kd of 40.8 pM.
B28 gave a dissociation constant (Kd) of 45.7 pM.

The values are drawn from patent US20260356924 (published 2026).
